Consider 1 protein from publication PMC2810717.

Substrate in the data set: CC(=O)NCCCNCCCCNCCCN
As to the kind of experiment: purified protein. It counts as biochemical, Homo sapiens. The conditions noted are these: FAD; pH 8.3; 25.0 °C.

The Km is the concentration of substrate that gives half-maximal velocity.

B1: spermine oxidase (SMO) (Homo sapiens) (protein)
chain: MQSCESSGDSADDPLSRGLRRRGQPRVVVIGAGLAGLAAAKALLEQGFTDVTVLEASSHIGGRVQSVKLGHATFELGATWIHGSHGNPIYHLAEANGLLEETTDGERSVGRISLYSKNGVACYLTNHGRRIPKDVVEEFSDLYNEVYNLTQEFFRHDKPVNAESQNSVGVFTREEVRNRIRNDPDDPEATKRLKLAMIQQYLKVESCESSSHSMDEVSLSAFGEWTEIPGAHHIIPSGFMRVVELLAEGIPAHVIQLGKPVRCIHWDQASARPRGPEIEPRGEGDHNHDTGEGGQGGEEPRGGRWDEDEQWSVVVECEDCELIPADHVIVTVSLGVLKRQYTSFFRPGLPTEKVAAIHRLGIGTTDKIFLEFEEPFWGPECNSLQFVWEDEAESHTLTYPPELWYRKICGFDVLYPPERYGHVLSGWICGEEALVMEKCDDEAVAEICTEMLRQFTGNPNIPKPRRILRSAWGSNPYFRGSYSYTQVGSSGADVEKLAKPLPYTESSKTAPMQVLFSGEATHRKYYSTTHGALLSGQREAARLIEMYRDLFQQGT
As to B1, the Km worked out at 492 ± 97 µM.
